# Laboratory results: the DeepSol protein solubility set
# Test: soluble on expression in E. coli; label from the status in PepcDB or PDB records
row,Sequence,soluble on expression in E. coli
1,GSSGGPNVPELILQLLQLEPEEDQVRARIVGCLQEPAKSRSDQPAPFSLLCRMADQTFISIVDWARRCMVFKELEVADQMTLLQNSWSELLVLDHIYRQVQYGKEDSILLVTGQEVELSTVAVQAGSLLHSLVLRAQELVLQLHALQLDRQEFVCLKFLILFSLDVKFLNNHSLVKDAQEKANAALLDYTLSHYPHSGDKFQQLLLSLVEVRALSMQAKEYLYHKHLGNEMPRNNLLIEMLQAKQT,soluble
2,GSSHHHHHHSFFFLSFHISNLQFNSSLEDPSTDYYQELQRDISEMFLQIYKQGGFLGLSNIKFRPG,soluble
3,GSSHHHHHHSSGLVPRGSHMRGQRGEVEQMKSCLRVLSQPMPPTAGEAEQAADQQEREGALELLADLCENMDNAADFCQLSGMHLLVGRYLEAGAAGLRWRAAQLIGTCSQNVAAIQEQVLGLGALRKLLRLLDRDACDTVRVKALFAISCLVREQEAGLLQFLRLDGFSVLMRAMQQQVQKLKVKSAFLLQNLLVGHPEHKGTLCSMGMVQQLVALVRTEHSPFHEHVLGALCSLVTDFPQGVRECREPELGLEELLRHRCQLLQQHEEYQEELEFCEKLLQTCFSSPADDSMDR,soluble
4,GSTSAKRIQKELAEITLDPPPNCSAGPKGDNIYEWRSTILGPPGSVYEGGVFFLDITFSPDYPFKPPKVTFRTRIYHCNINSQGVICLDILKDNWSPALTISKVLLSICSLLTDCNPADPLVGSIATQYMTNRAEHDRMARQWTKRYAT,soluble
5,GTEDLYFQSHMTIAVTGSIATDHLMRFPGRFSEQLLPEHLHKVSLSFLVDDLVMHRGGVAGNMAFAIGVLGGEVALVGAAGADFADYRDWLKARGVNCDHVLISETAHTARFTCTTDVDMAQIASFYPGAMSEARNIKLADVVSAIGKPELVIIGANDPEAMFLHTEECRKLGLAFAADPSQQLARLSGEEIRRLVNGAAYLFTNDYEWDLLLSKTGWSEADVMAQIDLRVTTLGPKGVDLVEPDGTTIHVGVVPETSQTDPTGVGDAFRAGFLTGRSAGLGLERSAQLGSLVAVLVLESTGTQEWQWDYEAAASRLAGAYGEHAAAEIVAVLA,soluble
6,GTERPYGQREVDHYAEKQAIAERAAQEVREGQVVCFDAGSTTMEVARAIPDTDYVAATNMPDLATELAEGDVDTKLTGGSLRPRTRALVGPTAERAVERMNFDLLFLGTNALDSAAGLSTPNEDEAAIKELMVERARRVVLVADASKFGDR,not soluble
7,GTIVITGTITDQTCTIEDPSPGYIKVVHLPTISKSALKNAGDVAGRTRFDIKLKDCPTTVNTLKLYFEPGPTTDYGTKDLKAYKQAWYVDAATLLKSPPSVTEAKGVQIRLMNLNGKQIPMGETEPNQHAAAFSGTMQAGQAKKSFTLHYLAGYVKKASGEVEATMLTTYVGFSVVYP,not soluble
8,GTTDAQGFATVEIKQSQGVGLSTPLNIVPVNSYIPNTVNYNVIFTTLTSPDAVGAQMWGHMDETITVDALTFARPRLAAEVFSPDGTLTENNEVWSRVSQANASSTSKGGCGANMLPRRSQLSALYDANNGNGVQTVHGWPTQRQPYWSSSPADQVPHYYTIALNDGARTVGGSTAVYVSCLTTANNP,not soluble
9,GVKYAYHGGAMANGIASVELVVALGKAGFLCSFGAAGLVPDAVEDAIKRIQAELPNGPYAVNLIHAPAEEALERGAVERFLKLGVKTVEASAYLGLTEHIVWYRLAGLSKNSDGSVKIGNKVIAKVSRTEVGRRFMEPAPQKLIDKLLAQGKVTQEQAELSKLVPMADDITAEADSGGHTDNRPFLTLLPTIIALRDEVQAQYNFSPALRVGAGGGIGTPEAALAAFNMGSAYIVLGSVNQACVEAGASEYTRKLLAQVEMAD,not soluble
10,GWLDLAPSTQVDTETSINVLSDIEFTLNGIYSTMQSSDAYSGRLVYYGDVTGDDMQAVSSTKRTGNYYRFNFTKDNGPSSHWSYLYSIIQNCNLILMNVDKLSIDEDETEYKNDLKGQALAIRGMALFDLTRIFGYPYLKDNGASLGVPIVKELSTIDSKPARNTVAECYTEIISDLKNSTELLSGDFNKGKVNRWAAMTLLSRVYLYKGEYNEALTMAENAIKGAEKEGYALWTNEEYPTAWGNDASASNPGEILFEIVNLTTDSPGKESMGYLNSYNGYDDMCITCSFYQLLKKDPKDVRLKILSFDKKYYAYVNKYQPQQGENITDANIPLIRLSEAYLNAAEAAVQTGDNAKAVKYLNSIVQRANPENSVEGKTLTLENVLDERRKELVAEGHRMYDVIRNGMTVKRIDVKDSDINKTKHNTAYMEYDWNFHKILLPIPKKEMDANPNMKQNPGYVD,soluble
11,GYQPEKHAVVKSDRGDGRLLSTYAIVHEMLKDTHPQYAYRSGMSAQEFTQWQDGVRAAMVEIMKFPEIKRQPSPVCVKTEKKEGYILEKWEFYPFPKSVSTFLVLKPEHLKGAVPGVLCIPGSGRTKEGLVGEPGICDKLTEDYNNPKVSMALNMVKEGYVAVAVDNAAAGEASDLECYDKGWNYDYDVVSRFLLELGWSWLGYTSYLDMQVLNWMKAQSYIRKDRIVISGFSLGTEPMMVLGVLDKDIYAFVYNDFLCQTQERAVVMTKPDKENRRPFPNSIRHLIPGYWRYFNFPDVVASLAPRPIIFTEGGLDRDFRLVQSAYAASGKPENAEFHHYPKFADKAVRKDVEHLDEGLDSKTYFEAVNVDPPSHYFKNELVIPWLRKVLK,soluble
12,HAAGFRRGDLVHNTLSYHFSPGGFIMDGGARACGCAVFPAGVGNTEAQIEAIKQLQPTGYTGTPSYLLTLLQKYQEQYGELPSFTKALVSGEAVTADMQQAFTDKGIAVFQAYASAELGLIAYQVAGEQGLVIGED,not soluble
13,HDVIFHIRAKGKNQKLLLSAHPSYSRVHITAQAYENPSEPPMFCMLLRKHIEGGFIEKIEQAGLDRIMIFHIKSRNEIGDETVRKLYVEIMGRHSNIILTDAAENVIIDGLKHLSPSMNSYRTVLPGQDYKLPPAQDKISPLEASEDDILRHLSFQEGRLDKQIVDHFSGVSPLFAKEAVHRAGLANKVTLPKALLALFAEVKEHRFIPNITTVNGKEYFYLLELTHLKGEARRFDSLSELLDRFYFGKAERDRVKQQAQDLERFVVNERKKNANKIKKLEKTLEYSENAKEFQLYGELLTANLYMLKKGD,not soluble
14,HFESIQAVNKTLNKKGLPPIIVHFIEETLQDYELIGMLNNGYIKAIVLDSHKAKLWLNAMDDIKAHKKVPLRKNGNIAWVMRQNSPQLKAVVNKFIQKSRSGTLLGNVIYSKYIDNTNWLNKALNPKKIAQLEKLSA,not soluble
15,HGSSTVDELTAAFTGGAATGEGGLTLTAPEIAENGNTVPIEVKAPGAVAIMLLAAGNPEPAVATFNFGPAAADQRAATRIRLAQTQDVIALAKMADGSVVKAQTTVKVTIGGCGG,soluble
16,HHHHHHHHHHMPPKGWRKDAQGNYPTTSYIKEQENITIQDLLFPKSTIVNLAREVPQQSGKKLLINKDASLALQRGATVFVNHLLLFAREIAKSQDKKSCSVDDVLSALDHIGHSALKGPVRDKLDEYQAAVEQRKKEKLDSGEVDADGDIDMGEDKENVPVEKVKEHDEIEEQGDALQDVEESSEKKQKTESQDVETRVQNLEQT,not soluble
17,HHHHHHMAGMAMDLGGYLTRIGLDGRPRPDLGTLHAIVAAHNRSIPFENLDPLLGIPVADLSAEALFAKLVDRRRGGYCYEHNGLLGYVLEELGFEVERLSGRVVWMRADDAPLPAQTHNVLSVAVPGADGRYLVDVGFGGQTLTSPIRLEAGPVQQTRHEPYRLTRHGDDHTLAAQVRGEWQPLYTFTTEPRPRIDLEVGSWYVSTHPGSHFVTGLTVAVVTDDARYNLRGRNLAVHRSGATEHIRFDSAAQVLDAIVNRFGIDLGDLAGRDVQARVAEVLDT,soluble
18,HIWLFFIEEGKNHYRVEFRSNGINVREVALKYGGGGHIQASGAVLKSKRDIIRVVQD,not soluble
19,HMNAEINPLHAYFKLPNTVSLVAGSSEGETPLNAFDGALLNAGIGNVALIRISSIMPPEAEIVPLPKLPMGALVPTAYGYIISDVPGETISAAISVAIPKDKSLCGLIMEYEGKCSKKEAEKTVREMAKIGFEMRGWELDRIESIAVEHTVEKLGCAFAAAALWYK,soluble
20,HMSICTSEEWQGLMQFTLPVRLCKEIELFHFDIGPFENMWPGIFVYMVHRSCGTSCFELEKLCRFIMSVKKNYRRVPYHNWKHAVTVAHCMYAILQNNHTLFTDLERKGLLIACLCHDLDHRGFSNSYLQKFDHPLAALYSTSTMEQHHFSQTVSILQLEGHNIFSTLSSSEYEQVLEIIRKAIIATDLALYFGNRKQLEEMYQTGSLNLNNQSHRDRVIGLMMTACDLCSVTKLWPVTKLTANDIYAEFWAEGDEMKKLGIQPIPMMDRDKKDEVPQGQLGFYNAVAIPCYTTLTQILPPTEPLLKACRDNLSQWEKVIRGEETATWISSPSVAQKAAASED,soluble
21,HQITRTVPAKRGTIYDRNGVPIAEDATSYNVYAVIDKKYKSATGKILYVEDAQFNKVAEVFHKYLDMEESYVREQLSQPNLKQVSFGSKGNGITYANMMAIKKELETAEVKGIDFTTSPNRSYPNGQFASSFIGLAQLHENEDGSKSLLGTSGMESSLNSILAGTDGIITYEKDRVGNIVPGTELVSQQTVDGKDVYTTLSSPLQSFMETQMDAFLEKVKGKYMTATLVSAKTGEILATTQRPTFNADTKEGITEDFVWRDILYQSNYEPGSAMKVMTLASSIDNNTFPSGEYFNSSELKIADATTRDWDVNEGLTTGGMMTFLQGFAHSSNVGMSLLEQKMGDATWLDYLKRFKFGVPTRFGLTDEYAGQLPADNIVSIAQSSFGQGISVTQTQMLRAFTAIANDGVMLEPKFISAIYDTNNQSVRKSQKEIVGNPVSKEAASTTRNHMILVGTDPLYGTMYNHYTGKPIITVPGQNVAVKSGTAQIADEKNGGYLVGSTNYIFSAVTMNPAENPDFILYVTVQQPEHYSGIQLGEFATPILERASAMKESLNLQSPAKNLDKVTTESSYAMPSIKDISPGELAEALRRNIVQPIVVGTGTKIKETSVEEGTNLAPNQQVLLLSDKVEEIPDMYGWKKETAETFAKWLDIELEFEGSGSVVQKQDVRTNTAIKNIKKIKLTLGD,soluble
22,HSLLPVDDAINGLSEEQRQLRQTMAKFLQEHLAPKAQEIDRSNEFKNLREFWKQLGNLGVLGITAPVQYGGSGLGYLEHVLVMEEISRASGAVGLSYGAHSNLCINQLVRNGNEAQKEKYLPKLISGEYIGALAMSEPNAGSDVVSMKLKAEKKGNHYILNGNKFWITNGPDADVLIVYAKTDLAAVPASRGITAFIVEKGMPGFSTSKKLDKLGMRGSNTCELIFEDCKIPAANILGHENKGVYVLMSGLDLERLVLAGGPLGLMQAVLDHTIPYLHVREAFGQKIGHFQLMQGKMADMYTRLMACRQYVYNVAKACDEGHCTAKDCAGVILYSAECATQVALDGIQCFGGNGYINDFPMGRFLRDAKLYEIGAGTSEVRRLVIGRAFNADFH,soluble
23,HSQRVIRELDEHGFWSAMIPQWEHIRGRMPRESVHIHTIDVHSMVVTANCATQSIRVARPDLLFLAALFHDIGKGYGRRHEEVGAEFVVDMATTLRLNPSDTQIVETLVAQHTIIPHIVGRYNPTSTEAIDKLLDAVNYDLLTLDLLEALVEADAQGTAPGVWSAVLRYGTRELCAQARQR,not soluble
24,ICNKYKNINVNMKKNNDDTWTDLVKNSSDINKGVLLPPRRKNLFLKIDESDICKYKRDPKLFKDFIYSSAISEVERLKKVYGEAKTKVVHAMKYSFADIGSIIKGDDMMENNSSDKIGKILGDGVGQNEKRKKWWDMNKYHIWESMLSGYKHAYGNISENDRKMLDIPNNDDEHQFLRWFQEWTENFCTKRNELYENMVTACNSAKCNTSNGSVDKKECTEACKNYSNFILIKKKEYQSLNSQYDMNYKETKAEKKESPEYFKDKCNGECSCLSEYFKDETRWKNPYETLDDTEVKNNCMCK,soluble
25,IDSGLSPSVLMASNSGRRSAPPLNLTGLPGTEKLNEKEKELCQVVRLVPGAYLEYKSALLNECHKQGGLRLAQARALIKIDVNKTRKIYDFLIREGYITKA,soluble
